Data reported in the supplement of paper PMC11136658.

Tested on: peptide library, one residue held at a place counted from the Y acceptor
Experiment: relative phosphorylation of the sub-library (ratio to the mean residue at this position); higher = residue favoured
Summary of the method: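 Every value reflects phosphorylation relative to the mean randomized residue. The sum of the 18 randomized residues, or 16 in the Ser/Thr-free library, served to normalize intensities at each position, which were then multiplied by that number. Intensities came from phosphorimaging with ImageQuant of biotinylated Tyr-centred peptides captured on streptavidin membranes after 90 min with purified recombinant kinases and 50 μM ATP plus γ-32P-ATP.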

PDHK3, construct: Full length, human, sequence (Q15120 whole entry, looked up): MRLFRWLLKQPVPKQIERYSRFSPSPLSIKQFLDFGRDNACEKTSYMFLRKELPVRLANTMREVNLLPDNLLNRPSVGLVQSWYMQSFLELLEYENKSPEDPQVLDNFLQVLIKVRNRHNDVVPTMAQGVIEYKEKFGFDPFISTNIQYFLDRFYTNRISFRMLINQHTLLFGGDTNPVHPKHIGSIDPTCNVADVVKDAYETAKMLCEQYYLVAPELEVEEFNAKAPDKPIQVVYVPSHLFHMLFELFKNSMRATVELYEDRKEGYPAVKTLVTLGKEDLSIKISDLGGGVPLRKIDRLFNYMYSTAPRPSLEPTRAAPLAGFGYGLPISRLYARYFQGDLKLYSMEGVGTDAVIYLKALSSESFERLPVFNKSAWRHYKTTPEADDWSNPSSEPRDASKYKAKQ
PDHK1, construct: Full length, human, sequence (Q15118 whole entry, looked up): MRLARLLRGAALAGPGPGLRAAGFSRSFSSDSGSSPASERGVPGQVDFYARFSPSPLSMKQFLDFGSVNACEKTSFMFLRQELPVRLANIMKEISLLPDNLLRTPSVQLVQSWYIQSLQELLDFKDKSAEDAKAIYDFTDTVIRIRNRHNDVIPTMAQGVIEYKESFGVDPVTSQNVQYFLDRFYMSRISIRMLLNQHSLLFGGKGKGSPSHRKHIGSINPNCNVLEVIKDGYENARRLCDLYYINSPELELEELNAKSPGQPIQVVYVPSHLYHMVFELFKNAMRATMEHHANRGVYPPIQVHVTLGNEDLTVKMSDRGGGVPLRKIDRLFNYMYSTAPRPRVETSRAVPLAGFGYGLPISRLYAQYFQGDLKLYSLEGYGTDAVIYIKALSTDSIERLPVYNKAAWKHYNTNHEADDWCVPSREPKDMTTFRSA

PDHK1, construct: Full length, human (from UniProt Q15118)
relative phosphorylation
Conditions	at +1	at +2	at +3	at +4	at +5	at -1	at -2	at -3	at -4	at -5
A fixed	0.893	0.682	0.8	0.868	0.717	0.76	1.54	0.847	0.895	0.845
D fixed	1.27	1.58	1.3	1.3	1.52	1.58	1.19	1.2	1.32	1.24
E fixed	1.12	1.17	1.41	1.16	1.27	1.96	1.24	1.06	1.26	1.34
F fixed	0.897	1.29	0.991	0.899	0.97	0.627	0.764	0.933	1.06	1.01
G fixed	1.04	0.92	1.02	1.16	1.1	0.971	1.17	1.03	1.06	0.973
H fixed	1.2	1.02	1.03	1.17	1.08	0.937	0.903	1.01	1	1.14
I fixed	0.779	0.704	0.862	0.895	0.845	0.938	0.71	0.72	0.755	0.844
K fixed	0.785	0.938	0.809	0.891	0.784	0.819	0.827	0.912	0.865	0.974
L fixed	0.844	0.863	0.78	0.907	0.838	0.888	0.72	0.93	0.881	0.906
M fixed	1.18	0.882	1.03	0.911	0.873	0.794	0.826	0.843	0.914	0.837
N fixed	1.1	1.02	1.01	0.982	1.04	1.03	1.01	1.01	0.997	1.03
P fixed	0.925	1.1	0.981	1.16	0.898	0.974	1.73	1.06	0.91	0.945
Q fixed	0.986	0.997	1.02	0.986	0.992	0.983	0.863	1.19	1.18	0.977
R fixed	0.822	0.851	0.899	0.819	0.863	0.744	0.818	0.976	0.891	0.935
V fixed	0.739	0.707	0.766	0.718	0.747	1.03	0.758	0.802	0.759	0.702
W fixed	1.41	1.27	1.3	1.18	1.47	0.96	0.934	1.48	1.26	1.3
pThr fixed	1.42	1.51	1.34	1.12	1.01	1.72	1.35	1.53	1.52	1.45
pTyr fixed	1.23	1.36	1.41	1.14	1.31	1.71	1.63	1.64	1.36	1.47

PDHK3, construct: Full length, human (from UniProt Q15120)
relative phosphorylation
Conditions	at +1	at +2	at +3	at +4	at +5	at -1	at -2	at -3	at -4	at -5
A fixed	0.864	0.935	0.907	1.15	0.809	0.955	1.04	0.965	1.15	1.1
D fixed	1.32	1.44	1.3	1.46	1.44	1.19	1.1	1.17	1.1	1.09
E fixed	1.1	1.02	1.32	1.46	1.23	0.907	1.02	0.781	0.943	0.994
F fixed	0.733	0.957	0.902	0.883	0.884	0.734	0.863	0.82	0.811	0.999
G fixed	1.14	0.947	1.11	1.06	1.09	1.03	1.07	1.24	1.33	1.12
H fixed	0.976	1.03	0.971	1.07	0.992	0.908	0.901	0.76	0.958	1.06
I fixed	0.74	0.721	0.875	0.87	0.766	0.781	0.793	0.67	0.826	0.874
K fixed	1.02	0.994	0.862	0.886	0.842	1.22	1.15	1.17	1	1.09
L fixed	0.876	0.878	0.869	1.03	0.886	0.906	1.12	1	0.9	0.95
M fixed	0.895	0.784	1.03	0.855	0.873	0.765	0.875	0.745	0.843	0.779
N fixed	1.18	1.01	0.955	0.877	0.944	1.04	0.912	0.933	0.986	0.897
P fixed	1.15	1.14	0.994	1.09	1.01	1.26	1.39	1.71	1.09	1.08
Q fixed	1.1	0.957	0.916	0.855	0.986	1.08	0.825	1.04	0.995	0.978
R fixed	1.09	0.889	0.906	0.714	0.926	1.09	1.02	1.01	1.18	0.997
V fixed	0.722	0.908	0.836	0.781	0.778	0.898	0.911	0.885	0.827	0.844
W fixed	1.1	1.39	1.26	0.97	1.54	1.24	1.03	1.09	1.07	1.15
pThr fixed	1.23	1.1	1.23	1.5	1.23	1.05	0.926	1.01	0.884	0.839
pTyr fixed	1.22	1.04	1.01	1.05	1.42	0.948	0.814	0.789	0.694	0.754
